The target of one data set is T1, EpCAM (human, UniProt P16422 P16422:24-265).
T1 sequence: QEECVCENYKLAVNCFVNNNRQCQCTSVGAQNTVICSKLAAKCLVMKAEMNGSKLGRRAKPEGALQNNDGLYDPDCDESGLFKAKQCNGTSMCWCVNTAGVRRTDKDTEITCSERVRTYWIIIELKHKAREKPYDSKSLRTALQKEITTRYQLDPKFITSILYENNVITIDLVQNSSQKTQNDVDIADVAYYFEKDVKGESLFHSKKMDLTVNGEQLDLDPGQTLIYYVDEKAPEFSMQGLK
Briefly: ELONA; bridging of 1 uM free EpCAM to plate-immobilized CD44; simple mixture of the two aptamers gave background only. To be noted: tags: Thermo Fisher Scientific; label: 3'-Cy5 on EpCAM strand for flow cytometry; two aptamers joined by 23 bp dsRNA adaptor with 2-3 unpaired base linkers. How it is done:
Serially diluted recombinant human CD44 protein (0-500 nM) was loaded into 96-well microtiter plates at 50 μg/well in triplicates and incubated overnight at 4° C. Plates were further blocked with 5% BSA/sperm DNA (500 μg/ml)/yeast tRNA (500 μg/ml)/0.05% Tween-20 in PBS/T buffer overnight. CD44-EpCAM conjugates or simply mixed CD44 and EpCAM aptamers were incubated with 1 μM recombinant human EpCAM for 4 h at room temperature. For simply mixed CD44 and EpCAM, prior putting CD44 and EpCAM aptamers together, CD44 aptamer was blocked with ssDNA (5′-[…]-3′) (SEQ ID NO: 11). […] Detection of HRP was performed by incubating with 100 µL/well soluble Turbo TMB-ELISA substrate for 5 min, then reaction was quenched with 100 μl/well Stop solution and the absorbance at 450 nm was measured using TECAN Infinite M 200 plate reader.
The binding of bispecific CD44-EpCAM aptamer was examined by ELISA (FIG. 1B). […] As expected (FIG. 1C), CD44-EpCAM bispecific aptamers successfully linked to plate-immobilized CD44 protein and free EpCAM proteins, yielding CD44 protein concentration-dependent positive signals, whereas only the background signal was detected in a control experiment with a simple mixture of CD44 aptamer and EpCAM aptamer. […]
For orientation: Flow cytometry measures light scatter and fluorescence of single cells or particles in a stream.

The target of data set [1] is human serum albumin (HSA) (human, UniProt P02768 P02768:25-609). The data set is described as follows: ELONA; immobilized HSA control, no positive signal. To be noted: label: 3'-Cy5 on EpCAM strand for flow cytometry; two aptamers joined by 23 bp dsRNA adaptor with 2-3 unpaired base linkers.
Sequence of human serum albumin (HSA) (P02768 25-609, one chain of several): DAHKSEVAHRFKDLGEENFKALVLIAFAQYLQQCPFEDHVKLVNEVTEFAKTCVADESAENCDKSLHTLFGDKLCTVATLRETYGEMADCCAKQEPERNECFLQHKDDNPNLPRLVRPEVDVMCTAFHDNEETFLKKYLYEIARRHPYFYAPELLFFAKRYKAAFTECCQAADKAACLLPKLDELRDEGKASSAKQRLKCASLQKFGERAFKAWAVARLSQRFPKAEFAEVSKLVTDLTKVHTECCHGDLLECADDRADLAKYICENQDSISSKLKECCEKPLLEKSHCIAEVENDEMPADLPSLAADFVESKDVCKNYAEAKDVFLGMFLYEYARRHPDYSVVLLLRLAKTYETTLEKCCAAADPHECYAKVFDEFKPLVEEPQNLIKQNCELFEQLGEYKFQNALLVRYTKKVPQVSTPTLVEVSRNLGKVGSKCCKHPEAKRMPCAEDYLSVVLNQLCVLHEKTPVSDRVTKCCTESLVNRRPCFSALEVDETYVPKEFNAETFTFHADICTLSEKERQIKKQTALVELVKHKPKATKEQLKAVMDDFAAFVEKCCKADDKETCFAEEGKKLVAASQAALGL

The results in this text go back to patent publication US20200157542, “Bispecific Aptamer for Treating Cancer” (Augusta University Research Institute, Inc., published 2020).

B1: CD44-EpCAM bispecific aptamer (ssRNA)
RNA 1: GGGAUGGAUCCAAGCUUACUGGCAUCUGGAUUUGCGCGUGCCAGAAUAAAGAGUAUAACGUGUGAAUGGGAAGCUUCGAUAGGAAUUCGGAAAAGCUUGUUCAGGAGAUGAAAUU
RNA 2: GCGACUGGUUACCCGGUCGUAAAAUUUCAUCUCCUGAACAAGCUU
modifications: RNA (U for T in printed DNA template), 2'-F pyrimidines throughout
With B1, the binding result with EpCAM was “binds”; in data set [1], “no binding”.
